Measurements published in PMC3341379.

Target: Clathrin triskelion with attached Gd-DTPA-ITC, as assembled into clathrin cages (rat (endogenous in rat liver and brain)) (UniProt P11442)
Assay: negative-stain transmission electron microscopy; cages assembled from modified triskelia mixed with AP-2 proteins 3:1 (v/v), dialysed against 50 mM MES Na pH 6.5, 100 mM NaCl, 2 mM DTT at 4°C; cages pelleted at 60,000 rpm and resuspended in 20 mM MES Na pH 6.2, 2 mM DTT; 0.05 mg/ml on carbon-coated grids, 1% uranyl acetate

- stoichiometry N (triskelia per cage): 36
Substance: Clathrin triskelion with attached Gd-DTPA-ITC, as assembled into clathrin cages (from UniProt P11442 1-1675; P08081 1-248) (complex)
